According to ChEMBL document CHEMBL5346942, “Identification and analysis of small molecule inhibitors of FosB from Staphylococcus aureus” (RSC Med Chem, 2023):
Calls of active or inactive are those of the source. The rule behind the calls is not given here.

Key:
[1] = biological target: Metallothiol transferase FosB (Staphylococcus aureus) (UniProt Q5HDM4); test: Inhibition of Staphylococcus aureus FosB using L-cysteine as substrate by absorbance based DTNB assay
[2] = system: CC(C)[C@H](O)P(=O)(O)O; test: (§1) Binding affinity to Staphylococcus aureus FosB using L-cysteine as substrate assessed as Km by DTNB assay based michaelis-menton analysis (reference value: 0.29 +/- 0.03 mM)
[3] = system: CC[C@@H](O)P(=O)(O)O; test: as §1
[4] = system: C[C@@H](C(=O)O)P(=O)(O)O; test: as §1
[5] = system: C[C@H](CO)P(=O)(O)O; test: as §1
[6] = system: O=C(O)CP(=O)(O)O; test: as §1
[7] = system: CC(C)[C@H](O)P(=O)(O)O; test: (§2) Binding affinity to Staphylococcus aureus FosB using L-cysteine as substrate assessed as catalytic constant by DTNB assay based michaelis-menton analysis (reference value: 2.95 /s)
[8] = system: CC[C@@H](O)P(=O)(O)O; test: as §2
[9] = system: C[C@@H](C(=O)O)P(=O)(O)O; test: as §2
[10] = system: C[C@H](CO)P(=O)(O)O; test: as §2
[11] = system: O=C(O)CP(=O)(O)O; test: as §2
[12] = system: CC(C)[C@H](O)P(=O)(O)O; test: (§3) Binding affinity to Staphylococcus aureus FosB using L-cysteine as substrate assessed as Kcat/Km by DTNB assay based michaelis-menton analysis (reference value: 10.33 /mM/s)
[13] = system: CC[C@@H](O)P(=O)(O)O; test: as §3
[14] = system: C[C@@H](C(=O)O)P(=O)(O)O; test: as §3
[15] = system: C[C@H](CO)P(=O)(O)O; test: as §3
[16] = system: O=C(O)CP(=O)(O)O; test: as §3

Sequence of Metallothiol transferase FosB (Staphylococcus aureus) (Q5HDM4 whole entry): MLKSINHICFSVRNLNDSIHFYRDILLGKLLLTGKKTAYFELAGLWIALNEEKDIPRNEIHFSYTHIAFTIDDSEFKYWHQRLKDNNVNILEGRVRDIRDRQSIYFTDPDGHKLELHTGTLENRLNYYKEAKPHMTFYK
Sequence of Metallothiol transferase FosB (Staphylococcus aureus), Q5HDM4 (Q5HDM4 whole entry): as above

## CC(C(=O)O)C(=O)O
[1]
  inhibition: inactive

## O=C(O)CCP(=O)(O)O
[1]
  inhibition: inactive

## O=P(O)(O)CCP(=O)(O)O
[1]
  inhibition: inactive

## Metallothiol transferase FosB (Staphylococcus aureus), Q5HDM4
[2]
  Km: 250 µM
[3]
  Km: 250 µM
[4]
  Km: 250 µM
[5]
  Km: 270 µM
[6]
  Km: 240 µM
[7]
  kcat: 2.84 s⁻¹
[8]
  kcat: 2.82 s⁻¹
[9]
  kcat: 2.84 s⁻¹
[10]
  kcat: 2.91 s⁻¹
[11]
  kcat: 2.83 s⁻¹
[12]
  kcat/Km: 11200 M⁻¹ s⁻¹
[13]
  kcat/Km: 11400 M⁻¹ s⁻¹
[14]
  kcat/Km: 11400 M⁻¹ s⁻¹
[15]
  kcat/Km: 10600 M⁻¹ s⁻¹
[16]
  kcat/Km: 11800 M⁻¹ s⁻¹
